The values below come from patent publication US8688427B2, “Enzyme catalysts for diels-alder reactions” (University of Washington, priority 2008, dated 2014).

Data set [1] relates to catalytic antibody mAb 7D4. Conditions: 310K; read-out: KM-dienophile; cited from earlier work.
In data set [2] the test system is catalytic antibody mAb 4D5. As to conditions: 310K; read-out: KM-dienophile; cited from earlier work.
The test system of data set [3] is Diels-Alderase DA_20_10, variant of DA_20_00 (Loligo vulgaris diisopropylfluorophosphatase scaffold, SEQ ID NO:2) with A21T/A74I/S271A/A173C/Q149R/A272N, SEQ …. As to the kind of experiment: Kinetics of Diels-Alder reaction catalysed by optimized DA_20_10. The data set is classed as biochemical. As to conditions: 298K; PBS; 20 μM protein; error = 95% confidence interval; read-out: KM-dienophile. As for the experimental part: (A) Dependence of reaction velocity on diene concentration for different fixed dienophile concentrations. The diene concentration was varied from 3.0 to 0.18 mM with a fixed concentration of 100 mM (⋄), 66 mM (Δ), 44 mM (⋄), 30 mM (◯), 20 mM (◯), or 13 mM (●) dienophile (B) Dependence of reaction velocity on dienophile concentration for different fixed diene concentrations. The dienophile was varied from 100 to 13.0 mM with a fixed concentration of 3 mM (♦), 2 mM (▴), 1.3 mM (∇), 0.9 mM (Δ), 0.6 mM (⋄), 0.4 mM (□), 0.26 mM (◯), or 0.18 mM (●) […]. Reactions were carried out with 20 μM protein in PBS at 298 K.
(§1) The Diels-Alder reactions were performed in PBS, at 25° C., with 4% DMSO. The DMSO came from the diene, for which the stock solution (100 mM) was made in DMSO and always diluted such that the final reaction would contain 4% DMSO. After incubation of the desired amount of diene and dienophile in the presence or absence of the protein, time points were taken of the reaction (5 μL) and quenched in a solution of 80:20 acetonitrile:water with 0.1% formic acid and 1 mM Benzoic Acid (95 μL). This reaction was incubated for 5 minutes and then the precipitated protein filtered using a Millipore multiscreen solvinert filter plate (Product Number: MSRLN0450). 20 μL of the filtered quench solution was then injected and analyzed using a liquid chromatography-tandem mass spectroscopy (LC-MSMS) assay.
To summarize the optimization rounds, residues contacting the transition state in DA—20—00 were mutated individually to sets of residues predicted to retain or improve transition state binding and bolster the two catalytic residues. […] Three of the mutations (FIG. 6C) likely improve the packing around the transition state (A741, A21 T) or catalytic glutamine (A173C). Two of the mutations likely improve the overall electrostatic complementarity with the bound substrates and transition state: Q149R hydrogen bonds to the carboxylate on the diene and S271A makes the dienophile environment more non polar.
The kinetics of the DA—20—10 catalyzed reaction was characterized by measuring the dependence of the reaction velocity on the concentration of both diene and dienophile. The effective molarity (kcat/kuncat) of DA—20—10 is 100 M, and the rate enhancement (kcat/(kuncat*KM_diene)) in the presence of saturating dienophile and limiting diene is 1.0×10^5. At high substrate concentrations DA—20—10 proceeds for more than 30 turnovers before the enzyme loses activity. At higher enzyme concentrations more than 80% of the diene substrate is converted to product.
The errors represent the calculated 95% confidence interval. The parameter a describes the cooperativity of binding between the two substrates: a value greater than one indicates negative cooperativity, whereas a value lower then one indicates positive cooperativity. α could not be determined for DA—20—00. Kinetic parameters for catalytic antibodies 7D4 and 4D5 were taken from (10, 17).

The next data set has as its system catalytic antibody 1E9. As to conditions: with N-ethyl maleimide as second substrate; cited from earlier work.
Data set [4] is described as follows: Diels-Alder activity assay with purified protein, LC-MSMS product detection. Format: biochemical. As to conditions: PBS. As for the experimental part: The observed velocity for each mutant was normalized by the velocity of DA—20—00 in order to determine the effective rate enhancement conferred by each mutation. The reactions were done at 1 mM diene, and 10 mM dienophile, PBS, 298K, and 100 μM protein.
Mutations showing enhanced activity on DA—20—04 were sequenced, grown large scale, and assayed. The assay was done at 0.1 mM dieine, 3 mM dienophile, PBS, 298K, and 20 μM protein.
as §1
A total of 43 variants were assayed using the standard activity assay. The observed activities are described in Table 2. In Table 2, the Expression column provides the number of times the mutant was expressed; the Observed column reports the raw signal level out of the mass-spec for the product (the Observed column is not normalized nor background corrected); the Concentration column provides the concentration of the protein after large-scale expression. […]

A short description of data set [5]: Production run and effects of knocking out the catalytic residues. The data set is classed as biochemical. Conditions: for decrease of catalytic activity on mutation of a catalytic residue of DA_20_10: relative to DA_20_10. As for the experimental part:
The reaction was carried out in 1 mM diene, 50 mM dienophile, 200 μM enzyme, in PBS at 298K. The proteins assayed are DA—20—10 (υ), Y121F (▴), Q195E (x), and tela scaffold (*), uncatalyzed (λ).
To determine whether the observed activity depends on the designed active site, we investigated the contributions of the designed catalytic residues in DA—20—10 to catalysis. Glutamine 195 was mutated into a glutamate (Q195E) and tyrosine 121 was mutated into a phenylalanine (Y121F). We had originally incorporated a glutamine rather than a glutamate at this position, despite the fact that the carboxylate should make a stronger hydrogen bond with the diene carbamate. This hydrogen bond should increase the energy of the diene HOMO (and thus decrease the energy gap with the dienophile LUMO), and more greatly stabilize the transition state. However, we were concerned that the substantial free energy cost of desolvating the carboxylate would considerably reduce binding affinity for the diene. […] The Y121F mutation decreases catalytic activity by 27-fold, consistent with the removal of a hydrogen bond that contributes to dienophile binding, stabilizes the dienophile LUMO, and is enhanced in the transition state.
Timepoints were taken and measured as previously described over a period of 60 hours.

Data set [6] is described as follows: Plate assay of crude cell lysate, second round of active site optimization. The data set is classed as biochemical. Conditions: Mutations Recombined; single mutations on DA_20_04; Neg_Control 0, Pos_Control 1. As for the experimental part: Since it was unreasonable to prepare the 176 enzyme variants in large scale, a plate assay was developed in which colonies directly from a Kunkel mutagenesis (8) reaction could be screened. Kunkel mutagenesis reactions were transformed directly into BL21(DE3)™ (Invitrogen) in order to generate each of the desired mutants. Four colonies from each plated reaction was picked and grown at 37° C. in 0.5 mL of LB-Kanamycin overnight. […]. This culture was grown for 2-3 hours at 37° C., after which 50 μL of 10 mM IPTG was added to each well (0.5 mM Final) in order to induce expression. The cells were then grown for 24 hours at 18° C., harvested, and stored at −20° C. until ready for assaying. To assay, crude cell lysate was prepared by resuspending the cells in 500 uL of PBS and lysing through 3 freeze/thaw cycles (15 minutes at −80° C., 40 minutes at 25° C.), followed by centrifugation at 4000 rpm for 30 minutes. […] Samples from each reaction were then quenched and product detected using a liquid chromatography-tandem mass spectroscopy.
To help remove some of this noise, samples showing WT activity were discarded if at least 2 of the other colonies picked from that Kunkel reaction did show an effect on activity (either greater or less than WT). […] The relative effect of each mutation was calculated. […]

As for `C=CC(=O)N(C)C` [dienophile, N,N-dimethylacrylamide], the results for the Michaelis constant (Km) in data set [1], in data set [2] and in data set [3] were 1.7 mM, 5.9 mM and 58.1 ± 14 mM, respectively. For `O=S1(=O)C(Cl)=C(Cl)C(Cl)=C1Cl` [tetrachlorothiophene dioxide], in the data set on catalytic antibody 1E9, the catalytic proficiency was 10^7 M^−1 and the effective molarity is given as 10^3 M.

B1: DA_20_00: original Diels-Alder enzyme design on diisopropylfluorophosphatase scaffold (PDB-ID 1E1A) (protein)
chain: MEIPVIEPLFTKVTEDIPGAAGPVFDKNGDFYIVAPYVEVNGKPAGEILRIDLKTGKKTVICKPEVNGYGGIPAGCQCDRDANQLFVADMRLGLLVVQTDGTFEEIAKKDSEGRRMQGCAYCAFDYEGNLWITAPAGEVAPADFTISLQEKFGSIYCFTTDGQMIQVDTAFQAPAGIAVRHMNDGRPYQLIVAEQPTKKLWSYDIKGPAKIENKKVWGHIPGTHKGGAAGMDFDEDNNLLVANWGSSHIEVFGPDGGQPKMRIRCPFEKPSALHFKPQTKTIFVTEHENNAVWKFEWQRNGKKQYCETLKFGIFGSLEHHHHHH
modifications: Enzyme catalyst for Diels-Alder reaction
Consider B1, for which the “activity versus background reaction (in words)” value in data set [4] (25° C., 4% DMSO) is given as “increased activity over the background reaction”.

B2: Y121F: DA_20_10 with tyrosine 121 mutated into a phenylalanine (protein)
chain: MEIPVIEPLFTKVTEDIPGAAGPVFDKNGDFYIVAPYVEVNGKPAGEILRIDLKTGKKTVICKPEVNGYGGIPAGCQCDRDANQLFVADMRLGLLVVQTDGTFEEIAKKDSEGRRMQGCAFCAFDYEGNLWITAPAGEVAPADFTISLQEKFGSIYCFTTDGQMIQVDTAFQAPAGIAVRHMNDGRPYQLIVAEQPTKKLWSYDIKGPAKIENKKVWGHIPGTHKGGAAGMDFDEDNNLLVANWGSSHIEVFGPDGGQPKMRIRCPFEKPSALHFKPQTKTIFVTEHENNAVWKFEWQRNGKKQYCETLKFGIFGSLEHHHHHH
As to B2, the “decrease of catalytic activity on mutation of a catalytic residue of DA_20_10” value in data set [5] was determined as 27 fold.

B3: Q195E: DA_20_10 with glutamine 195 mutated into a glutamate (protein)
chain: MEIPVIEPLFTKVTEDIPGAAGPVFDKNGDFYIVAPYVEVNGKPAGEILRIDLKTGKKTVICKPEVNGYGGIPAGCQCDRDANQLFVADMRLGLLVVQTDGTFEEIAKKDSEGRRMQGCAYCAFDYEGNLWITAPAGEVAPADFTISLQEKFGSIYCFTTDGQMIQVDTAFQAPAGIAVRHMNDGRPYQLIVAEEPTKKLWSYDIKGPAKIENKKVWGHIPGTHKGGAAGMDFDEDNNLLVANWGSSHIEVFGPDGGQPKMRIRCPFEKPSALHFKPQTKTIFVTEHENNAVWKFEWQRNGKKQYCETLKFGIFGSLEHHHHHH
For the molecule B3, the “decrease of catalytic activity on mutation of a catalytic residue of DA_20_10” value in data set [5] was 450 fold.

B4: DA_20_04: DA_20_00 triple mutant A21T, A74I, S271A (protein)
chain: MEIPVIEPLFTKVTEDIPGATGPVFDKNGDFYIVAPYVEVNGKPAGEILRIDLKTGKKTVICKPEVNGYGGIPIGCQCDRDANQLFVADMRLGLLVVQTDGTFEEIAKKDSEGRRMQGCAYCAFDYEGNLWITAPAGEVAPADFTISLQEKFGSIYCFTTDGQMIQVDTAFQAPAGIAVRHMNDGRPYQLIVAEQPTKKLWSYDIKGPAKIENKKVWGHIPGTHKGGAAGMDFDEDNNLLVANWGSSHIEVFGPDGGQPKMRIRCPFEKPAALHFKPQTKTIFVTEHENNAVWKFEWQRNGKKQYCETLKFGIFGSLEHHHHHH
modifications: Enzyme catalyst for Diels-Alder reaction
notes: DA_20_00 triple mutant A21T, A74I, S271A
Consider B4, for which the Effect on in data set [6] is reported as 1. The “product formed per hour” value in data set [4] (0.1 mM diene, 3 mM dienophile, 298K, 20 μM protein) is on record as 21.9 nM of product/hour. In addition, the “rate enhancement over DA_20_00 (velocity normalized by velocity of DA_20_00)” value in data set [4] (1 mM diene, 10 mM dienophile, 298K, 100 μM protein) was 20.5 fold.

B5: wild-type scaffold: diisopropylfluorophosphatase from Loligo vulgaris (PDB-ID 1E1A) (protein, listed as Loligo vulgaris)
chain: MEIPVIEPLFTKVTEDIPGAEGPVFDKNGDFYIVAPEVEVNGKPAGEILRIDLKTGKKTVICKPEVNGYGGIPAGCQCDRDANQLFVADMRLGLLVVQTDGTFEEIAKKDSEGRRMQGCNDCAFDYEGNLWITAPAGEVAPADYTRSMQEKFGSIYCFTTDGQMIQVDTAFQFPNGIAVRHMNDGRPYQLIVAETPTKKLWSYDIKGPAKIENKKVWGHIPGTHEGGADGMDFDEDNNLLVANWGSSHIEVFGPDGGQPKMRIRCPFEKPSNLHFKPQTKTIFVTEHENNAVWKFEWQRNGKKQYCETLKFGIF
Turning to B5, the “activity (in words)” value in data set [5] is listed as “did not show any measurable activity”.
